Source: patent US20140234868A1, “USE FOR GLYCOLIPOPROTEIN GINTONIN, ISOLATED AND IDENTIFIED FROM GINSENG, AS A NATURAL MEDICAL-PLANT DERIVED LIGAND” (KONKUK UNIVERSITY INDUSTRIAL COOPERATION CORP., priority 2011, published 2014)

How the values were obtained:
GPR35 = target: T1, GPR35 (Homo sapiens, UniProt Q9HC97); experiment: Intracellular free Ca2+ in GPR35-expressing B103 cells; assay type: cell-based
T1 construct: host or cells: B103 rat neuroblastoma cells
Text: Optionally, the method may further comprise (8) pre-treating the suspended B103 cells with LPA receptor antagonists and LPA receptor-mediated signaling-relevant drugs (e.g., pertussis toxin, PLC inhibitors, IP3 receptor antagonists) to examine whether the cells decrease or increase in intracellular free Ca^2+, prior to treatment with gintonin; (9) performing site-directed mutagenesis to identify an amino acid of LPA receptors with which gintonin interact to activate the LPA; and (10) examining whether gintonin activates orphan GPCRs including GPR35 and GPR87, and free fatty acid GPCRs including GPR40, GPR41, GPR43 and GPR120, all known for activation by LPA.
In addition, GPR35 (Oka et al., Biochem Biophys Res Commun. 395, 232-237, 2010) and GPR87 (Tabata et al., Biochem Biophys Res Commun. 363, 861-866, 2007), both known as orphan GPCRs reacting with LPA, and GPR40, GPR41, GPR43 and GPR120 (Hirasawa et al., Biol Pharm Bull. 31, 1847-1851, 2008), all known as fatty acid receptors reacting with free fatty acids, were expressed in B103 cells when gintonin activity was tested.

[1] = tested on: mutant NMDA receptor (S1312A); experiment: Gintonin-induced activation of mutant NMDA receptor S1312A in oocytes; assay type: cell-based
Experimental: Two-electrode voltage-clamp recordings were obtained from individual oocytes placed in a small Plexiglas net chamber (5 ml). Electrophysiological experiments were performed using microelectrodes filled with 3 M KCl (resistance of 0.2-0.7 MΩ) and an Oocyte Clamp amplifier (OC-725C; Warner Instrument, Hamden, Conn.). For physiological recordings of NMDA receptor activity, oocytes were first perfused with Mg^2+-free ND96 (mM: 96 NaOH, 2 KOH, 0.3 CaCl2, 5 HEPES pH 7.6 with methanesulfonic acid). Then, the oocytes were clamped at −60 mV holding potential, followed by recoding NMDA currents (induced by administering […]) (Zheng et al., J Neurosci. 17, 8676-8686, 1997; Chang and Kuo, J Neurosci. 28, 1546-1556, 2008).
Thus, it is understood that gintonin stimulates PKC to phosphorylate the NMDA receptor at a specific site (S1308), and thus that gintonin-induced NMDA receptor activation is associated with PKC activity.

mice = experiment: Passive avoidance test, scopolamine-caused long-term memory impairment; assay type: in vivo, mouse
Experimental: ICR male mice (25-28 g), purchased from Oriental Bio (Seoul, Korea), were bred according to the guideline of the Institutional Animal Care and Use Committee of Konkuk University, and subjected to passive avoidance test to examine memory maintenance impairment and the protection of gintonin against memory impairment according to the method of Yang et al. (Yang et al., Biol Pharm Bull 32, 1710-1715, 2009).
A passive avoidance test was performed in a training chamber which was divided into two compartments (20×20×20 cm in size, each) separated by an automatically moving guillotine door (5×5 cm): one compartment was lighted while the other remained dark where metal rods installed in a lattice pattern on the bottom so as to deliver an electrical foot shock (Gemini Avoidance System, San Diego, USA).
For an acquisition trial, a mouse was first placed in the lighted compartment, facing away from the dark compartment and allowed to explore for 10 sec. After 10 sec, the guillotine door was opened and the mouse was allowed to explore freely. When the mouse entered the dark compartment with all four paws according to its habit, the guillotine door was closed, and a footshock (0.5 mA, 3 sec duration) was delivered. The latency time to enter the dark compartment was recorded (from the time the door was lifted). 120 min before experimentation, gintonin (25, 50, 100 mg/kg, p.o) was administered while tacrine (10 mg/kg, p.o) was used as a positive control. Memory impairment was induced by injecting scopolamine (0.9 mg/kg, i.p.) 30 min after gintonin or tacrine administration (Araujo et al., Prog Neuropsycopharmcol Biol Psychiatry 29, 411-422, 2005). For a negative control, a physiological saline was used.
24 Hours after the learning session, an experiment was performed without injecting gintonin. The mouse was positioned again in the lighted compartment. After 10 sec of acclimation, the latency time to enter the dark compartment was recorded (from the time the door was lifted).

HUVECs = experiment: Tubular formation of HUVECs on Matrigel; assay type: cell-based, human; details: gintonin 30 μg/ml, 4 hrs
Experimental: To examine the effect of gintonin on angiogenesis, formation of vascular tube-like structures on Matrigel was compared between the control and the gintonin-treated group (Kim et al. Biol Pharm Bull 30: 1674-1679).
Briefly, cells were incubated for 6 hrs in M199 (1% FBS). After trypsinization, the cells were suspended in M199 (1% FBS), and seeded (2×10^5 cells/well) to 24-well plates coated with Matrigel (250 μl/well).
The cells were incubated at 37° C. for 4 hrs in M199 (1% FBS) containing gintonin (30 μg/ml), and observed for tubular formation by inverted fluorescence microscopy (AxioVert200, Carl Zeiss).

T1 sequence (Q9HC97 whole entry): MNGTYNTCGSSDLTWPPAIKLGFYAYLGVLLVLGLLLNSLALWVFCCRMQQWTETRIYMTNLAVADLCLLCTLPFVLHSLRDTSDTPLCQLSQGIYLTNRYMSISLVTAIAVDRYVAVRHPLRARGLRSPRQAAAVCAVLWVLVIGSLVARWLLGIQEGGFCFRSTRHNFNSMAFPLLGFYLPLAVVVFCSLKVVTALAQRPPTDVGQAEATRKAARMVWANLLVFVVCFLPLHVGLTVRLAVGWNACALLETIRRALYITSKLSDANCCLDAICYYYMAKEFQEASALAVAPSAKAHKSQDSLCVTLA

B1: gintonin: ginseng-derived glycolipoprotein; structural protein of ginseng major latex-like protein (MLP151) and ribonuclease-like storage proteins; crude gintonin used in tests (protein)
chain 1: MGLTGKLICQTGIKSDGDVFHELFGTRPHHVPNITPANIQGCDLHEGEFGKVGSVVIWNYSIDGNAMIAKEEIVAIDEEDKSVTFKVVEGHLFEEFKSIVFSVHVDTKGEDNLVTWSIDYEKLNESVKDPTSYLDFLLSVTRDIEAHHLPK
chain 2: RSDYPWAMFALRLQWPAGFCEVNNACDTKSLLNTFTIHGLYPYNAKGTPALYCDGTAFDVNSVSDFLAEMHLAWPSHETNTEDIQFWEHEWKKHGRCSEALLKQTDYFRTALAFRKAFDIVGLLNQEGIYPNNDLYRPKMIKEAIKKHLNAVPEIDFTKNENSEYVLTDINVCVNQQATRFVDCPTDDATDDYRLKFVRLPSKMKFADPRTNSII
increase of intracellular calcium level (GPR35): increase an intracellular calcium level in GPR35-expressing B103 cells, but slightly | gintonin-induced NMDA receptor activation [1]: maintained gintonin-induced NMDA receptor activation | latency time (mice; gintonin 25 mg/kg p.o. + scopolamine 0.9 mg/kg i.p.): 78.24 ± 7.83 s | latency time (mice; gintonin 50 mg/kg p.o. + scopolamine 0.9 mg/kg i.p.): 169.22 ± 12.97 s | latency time (mice; gintonin 100 mg/kg p.o. + scopolamine 0.9 mg/kg i.p.): 183.43 ± 10.89 s | tubular formation (HUVECs): promoted tubular formation
